According to paper PMC10261046, “Mechanism of small molecule inhibition of Plasmodium falciparum myosin A informs antimalarial drug design” (Nature Communications, 2023):

B1: MTIP-ΔN (PfMTIP lacking residues 1-E60) (domain or fragment)
light: SVADIQQLEEKVDESDVRIYFNEKSSGGKISIDNASYNARKLGLAPSSIDEKKIKELYGDNLTYEQYLEYLSICVHDKDNVEELIKMFAHFDNNCTGYLTKSQMKNILTTWGDALTDQEAIDALNAFSSEDNIDYKLFCEDILQ
notes: also called ΔN-MTIP
B2: PfMyoA (full length Plasmodium falciparum myosin A heavy chain WT with bound light chains PfELC and PfMTIP) (complex)
chain 1: MAVTNEEIKTASKIVRRVSNVEAFDKSGSVFKGYQIWTDISPTIENDPNIMFVKCVVQQGSKKEKLTVVQIDPPGTGTPYDIDPTHAWNCNSQVDPMSFGDIGLLNHTNIPCVLDFLKHRYLKNQIYTTAVPLIVAINPYKDLGNTTNEWIRRYRDTADHTKLPPHVFTCAREALSNLHGVNKSQTIIVSGESGAGKTEATKQIMRYFASSKSGNMDLRIQTAIMAANPVLEAFGNAKTIRNNNSSRFGRFMQLVISHEGGIRYGSVVAFLLEKSRIITQDDNERSYHIFYQFLKGANSTMKSKFGLKGVTEYKLLNPNSTEVSGVDDVKDFEEVIESLKNMELSESDIEVIFSIVAGILTLGNVRLIEKQEAGLSDAAAIMDEDMGVFNKACELMYLDPELIKREILIKVTVAGGTKIEGRWNKNDAEVLKSSLCKAMYEKLFLWIIRHLNSRIEPEGGFKTFMGMLDIFGFEVFKNNSLEQLFINITNEMLQKNFVDIVFERESKLYKDEGISTAELKYTSNKEVINVLCEKGKSVLSYLEDQCLAPGGTDEKFVSSCATNLKENNKFTPAKVASNKNFIIQHTIGPIQYCAESFLLKNKDVLRGDLVEVIKDSPNPIVQQLFEGQVIEKGKIAKGSLIGSQFLNQLTSLMNLINSTEPHFIRCIKPNENKKPLEWCEPKILIQLHALSILEALVLRQLGYSYRRTFEEFLYQYKFVDIAAAEDSSVENQNKCVNILKLSGLSESMYKIGKSMVFLKQEGAKILTKIQREKLVEWENCVSVIEAAILKHKYKQKVNKNIPSLLRVQAHIRKKMVAQ
chain 2: MASDMEEKFREAFILFSSCSDHIEMYKFFELMNSFGIILTNDEKAALPNDINMDYWLNFAKKHYNYEQPFKHINNVNEQNTNVQIKIDNFLGIMKALDTRLTESDLNILLQITNPENKSTLNLKTVSQKLTESI
chain 3: MKQECNVCYFNLPDPESTLGPYDNELNYFTWGPGFEYEPEPQRKPLSIEESFENSEESEESVADIQQLEEKVDESDVRIYFNEKSSGGKISIDNASYNARKLGLAPSSIDEKKIKELYGDNLTYEQYLEYLSICVHDKDNVEELIKMFAHFDNNCTGYLTKSQMKNILTTWGDALTDQEAIDALNAFSSEDNIDYKLFCEDILQ
notes: also called class XIV myosin A; M.ADP; copies: + +
B3: PfELC (natural protein)
light: B2 chain 2
notes: also called essential light chain

Columns and labels:
[1] = target: T1, Full-length PfMyoA heavy chain WT (Plasmodium falciparum, UniProt Q8IDR3 1-818); assay: crystal structure; PfMyoA/ELC/MTIP-ΔN co-crystallized with or without KNX-002 and with or without ATPγS; hanging drop, 4 °C, 2.0 M ammonium sulfate, 0.1 M sodium HEPES pH 7.5, 4% PEG400; details: both partners purified
T1 sequence (heavy): B2 chain 1

[2] = target: Skeletal muscle actin (chicken), filaments (chicken, UniProt P68139 1-377); assay: count of fluorescent actin filaments on surface-immobilized myosin (modified in vitro motility assay); PfMyoA surface-immobilized; same buffer, 0% methylcellulose, 30 °C; no nucleotide (NF); with or without KNX-002; details: both partners purified

| Binder | binding result [1] | binding result [2] |
| --- | --- | --- |
| B1 | binds |  |
| B2 |  | binds |
| B3 | binds |  |
